Test results as given in publication PMC7858582.
Each block holds one binder with its values, some of them ahead of it.

Key:
[1] = molecular target: soluble recombinant mouse BAFF (mouse) (UniProt Q9WU72)
[2] = molecular target: soluble recombinant mouse BAFF (mouse) (UniProt Q9WU72); remark: listed apart in the source

Sequence of UniProt Q9WU72 (Q9WU72 127-309): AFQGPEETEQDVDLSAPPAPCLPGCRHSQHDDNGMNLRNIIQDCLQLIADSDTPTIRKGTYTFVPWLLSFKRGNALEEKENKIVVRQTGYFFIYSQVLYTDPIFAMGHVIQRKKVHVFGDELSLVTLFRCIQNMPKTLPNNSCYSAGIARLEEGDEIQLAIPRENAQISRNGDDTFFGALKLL

percent of NgR1+ or NgR3+ B-cells isolated from spinal cord of EAE ngr1+/+ mice in S phase (BrdU/7AAD flow cytometry) after 50 ng/mL rBAFF pre-incubated with excess NgR-Fc [1]: 20.6%
percent of isolated spinal cord B-cells staying in the G0/G1 phase after rBAFF pre-incubated with excess NgR-Fc [1]: 55.8%
percent of B-cells isolated from spleen entering the S phase after rBAFF pre-incubated with excess NgR-Fc [2]: 8%
percent of B-cells isolated from spleen halted in the G0/G1 phase after rBAFF pre-incubated with excess NgR-Fc [2]: 85.5%
B1: NgR1-Fc (Fc fusion)
chain: CPGACVCYNEPKVTTSCPQQGLQAVPTGIPASSQRIFLHGNRISHVPAASFQSCRNLTILWLHSNALARIDAAAFTGLTLLEQLDLSDNAQLHVVDPTTFHGLGHLHTLHLDRCGLRELGPGLFRGLAALQYLYLQDNNLQALPDNTFRDLGNLTHLFLHGNRIPSVPEHAFRGLHSLDRLLLHQNHVARVHPHAFRDLGRLMTLYLFANNLSMLPAEVLMPLRSLQYLRLNDNPWVCDCRARPLWAWLQKFRGSSSEVPCNLPQRLADRDLKRLAASDLEGCAVASGPFRPIQTSQLTDEELLSLPKCCQPDAADKASVLEPGRPASAGNALKGRVPPGDTPPGNGSGPRHINDSPFGTLPSSAEPPLTALRPGGSEPPGLPTTGPRRRPGCSRKNRTRSHCRLGQAGSGASGTGDAEGS

percent of NgR1+ or NgR3+ B-cells isolated from spinal cord of EAE ngr1+/+ mice in S phase (BrdU/7AAD flow cytometry) after 50 ng/mL rBAFF pre-incubated with excess rBAFF-R [1]: 27.7%
B2: recombinant BAFF-R (receptor)
chain: MGARRLRVRSQRSRDSSVPTQCNQTECFDPLVRNCVSCELFHTPDTGHTSSLEPGTALQPQEGSALRPDVALLVGAPALLGLILALTLVGLVSLVSWRWRQQLRTASPDTSEGVQQESLENVFVPSSETPHASAPTWPPLKEDADSALPRHSVPVPATELGSTELVTTKTAGPEQ
